# Reference: patent US7067474B1, “Agents for treating human illnesses based on β-catenin, and the production and use thereof” (Max-Delbruck-Centrum fur Molekulare Medizin, priority 1998, dated 2006)
# Where no end group is shown, it is not given here.
# B1: 11–27: LEF-1 fragment amino acids 11–27, Lex-A hybrid; minimum binding domain for β-catenin (protein)
# chain: MKALTARQQEVFDLIRDHISQTGMPPTRAEIAQRLGFRSPNAAEEHLKALARKGVIEIVSGASRGIRLLQEEEEGLPLVGRVAAGEPLLAQQHIEGHYQVDPSLFKPNADFLLRVSGMSMKDIGIMDGDLLAVHKTQDVRNGQVVVARIDDEVTVKRLKKQGNKVELLPENSEFKPIVVDLRQQSFTIEGLAVGVIRNGDWLGDPELCATDEMIPFKDE
# B2: 11–23: LEF-1 fragment amino acids 11–23, Lex-A hybrid (protein)
# chain: MKALTARQQEVFDLIRDHISQTGMPPTRAEIAQRLGFRSPNAAEEHLKALARKGVIEIVSGASRGIRLLQEEEEGLPLVGRVAAGEPLLAQQHIEGHYQVDPSLFKPNADFLLRVSGMSMKDIGIMDGDLLAVHKTQDVRNGQVVVARIDDEVTVKRLKKQGNKVELLPENSEFKPIVVDLRQQSFTIEGLAVGVIRNGDWLGDPELCATDEMIP
# B3: 17–34: LEF-1 fragment amino acids 17–34, Lex-A hybrid (protein)
# chain: MKALTARQQEVFDLIRDHISQTGMPPTRAEIAQRLGFRSPNAAEEHLKALARKGVIEIVSGASRGIRLLQEEEEGLPLVGRVAAGEPLLAQQHIEGHYQVDPSLFKPNADFLLRVSGMSMKDIGIMDGDLLAVHKTQDVRNGQVVVARIDDEVTVKRLKKQGNKVELLPENSEFKPIVVDLRQQSFTIEGLAVGVIRNGDWLATDEMIPFKDEGDPQKEK
# Experiments:
# β-catenin/TCF-4 complex = test: ELISA with synthetic peptides: formation of the β-catenin/TCF-4 complex; type: binding; conditions: synthetic TCF4 peptides, analogous to LEF-1 peptides, which inhibit specifically
# β-catenin = target: T1, β-catenin (Homo sapiens, UniProt P35222); test: yeast-2-hybrid system: interaction of LEF-1 fragments with β-catenin (β-galactosidase reporter activity); type: binding; conditions: LEF-1 fragments as Lex-A hybrids
# T1 construct: expressed in transfected cells; host or cells: yeast (two-hybrid system, Clontech)
# T1 sequence (P35222 1-781): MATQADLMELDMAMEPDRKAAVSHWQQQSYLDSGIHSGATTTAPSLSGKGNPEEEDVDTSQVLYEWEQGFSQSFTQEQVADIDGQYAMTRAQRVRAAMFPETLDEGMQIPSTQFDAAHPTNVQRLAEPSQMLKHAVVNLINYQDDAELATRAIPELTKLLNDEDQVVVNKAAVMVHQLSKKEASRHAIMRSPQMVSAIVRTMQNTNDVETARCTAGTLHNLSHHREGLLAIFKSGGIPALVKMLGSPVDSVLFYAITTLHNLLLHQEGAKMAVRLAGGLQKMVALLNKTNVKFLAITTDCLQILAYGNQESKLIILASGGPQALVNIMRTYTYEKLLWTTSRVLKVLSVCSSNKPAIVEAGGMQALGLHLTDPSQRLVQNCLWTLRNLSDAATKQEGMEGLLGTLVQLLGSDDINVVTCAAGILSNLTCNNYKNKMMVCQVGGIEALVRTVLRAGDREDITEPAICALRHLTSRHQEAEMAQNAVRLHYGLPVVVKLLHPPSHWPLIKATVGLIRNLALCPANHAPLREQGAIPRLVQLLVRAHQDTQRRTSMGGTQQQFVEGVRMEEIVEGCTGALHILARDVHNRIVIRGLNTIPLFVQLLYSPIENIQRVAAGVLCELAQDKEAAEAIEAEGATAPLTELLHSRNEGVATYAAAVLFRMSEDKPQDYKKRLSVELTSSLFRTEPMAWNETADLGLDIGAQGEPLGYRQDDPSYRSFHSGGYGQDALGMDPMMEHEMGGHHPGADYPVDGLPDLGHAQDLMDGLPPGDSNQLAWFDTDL
# Method: The ‘yeast-2-hybrid system’ was used for identifying the minimum binding domain (FIG. 1). It was possible to limit the minimum binding domain to the N-terminal amino acids 11–27 of LEF-1 which corresponds t) the amino acids 7–29 in TCF-4 (FIG. 2). The interaction of N-terminal LEF-1 fragments with β-catenin was detected by means of activating a lacZ reporter gene (s. example).
# The interaction between the partial domains of LEF-1 and β-catenin was analyzed in the yeast-2 hybrid system by determining the activity of β-galactosidase according to information of the producer (Clontech) (FIG. 1). For this purpose the DNA coding for the N-terminal partial domains of LEF-1 was inserted into the cloning site of the Lex-A DNA binding domain which contains vector BTM 116 and checked by sequencing. The DNA fragments of LEF-1 were prepared by a polymerase chain reaction (PCR) and incubation with restriction endonucleases. The DNA coding for β-catenin was cloned into the vector pGAD424 (Clontech) for the activation domain of GAL-4 (Behrens et al. 1996). The β-galactosidase activities of independent experiments were averaged (or comparing the interaction of the hybrids.
# The specificity of the interaction of the LEF-1 hybrids with β-catenin was checked by means of the β-galactosidase activity of yeasts producing the LEF hybrids and the GAL-4 activation domain without β-catenin (FIG. 1). The expression of the LEF-1 hybrids was checked in an immunoblot with yeast cell lysates by antibodies (Clontech) as against the Lex-A domain of the hybrids. Equal yeast quantities were used for preparing the lysates after determining the optical density of the cultures.
# The interaction of fragments of the binding domain of LEF-1 with β-catenin was analyzed by means of the β-galactosidase reporter activity in the yeast-2-hybrid system. […] Accordingly, the minimum binding domain of LEF-1 for β-catenin consists of 17 amino acids (11–27) showing an acidic character.
# [1] = target: T2, β-catenin produced recombinantly in bacteria with N-terminal histidine sequence (Homo sapiens (Human), UniProt P35222 2-781); test: competition ELISA, LEF-1 coated, β-catenin in solution, detection with antibody PA2
# T2 construct: Soluble partner in the ELISA (50-100 ng), detected with antibody PA2
# T2 sequence: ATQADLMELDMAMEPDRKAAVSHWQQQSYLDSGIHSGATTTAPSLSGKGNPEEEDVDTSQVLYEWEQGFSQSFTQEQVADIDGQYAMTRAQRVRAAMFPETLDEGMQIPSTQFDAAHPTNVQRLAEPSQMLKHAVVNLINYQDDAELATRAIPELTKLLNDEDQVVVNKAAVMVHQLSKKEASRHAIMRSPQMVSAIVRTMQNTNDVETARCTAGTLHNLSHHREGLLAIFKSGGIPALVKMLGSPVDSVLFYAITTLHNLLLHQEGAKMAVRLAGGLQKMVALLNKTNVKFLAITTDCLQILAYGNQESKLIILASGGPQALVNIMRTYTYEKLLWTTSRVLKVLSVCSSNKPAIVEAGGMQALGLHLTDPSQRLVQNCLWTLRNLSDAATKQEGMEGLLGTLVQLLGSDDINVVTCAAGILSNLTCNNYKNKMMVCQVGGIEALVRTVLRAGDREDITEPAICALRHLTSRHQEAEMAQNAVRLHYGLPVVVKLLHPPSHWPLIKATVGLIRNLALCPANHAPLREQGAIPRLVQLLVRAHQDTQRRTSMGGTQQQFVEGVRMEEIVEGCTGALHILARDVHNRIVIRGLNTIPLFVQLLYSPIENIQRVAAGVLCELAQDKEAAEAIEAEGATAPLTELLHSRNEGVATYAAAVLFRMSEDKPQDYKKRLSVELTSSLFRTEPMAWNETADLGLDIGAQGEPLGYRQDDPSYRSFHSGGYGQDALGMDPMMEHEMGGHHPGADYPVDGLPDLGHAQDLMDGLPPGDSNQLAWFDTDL
Molecule,Binding to β-catenin (β-galactosidase reporter activity) (β-catenin),further results
GGDDLGANDELISFKDEGEQEEK [7–29],–,inhibition of formation of the β-catenin/TCF-4 complex (β-catenin/TCF-4 complex): Analogous principles apply
Met21 up to Val 56: partial domain of LEF-1 covering Met21 up to Val 56,does not show any binding activity,–
DLGANDELISFKDE [10–23],–,inhibition of formation of the β-catenin/TCF-4 complex (β-catenin/TCF-4 complex): Analogous principles apply
B1,does not result in a loss of bond,–
B2,prevent the interaction,–
B3,prevent the interaction,–
"GGDPELCATDEMIPFKDEGDPQKEK (peptide, UniProt P27782 10-34, looked up, range 10-34; the legend prints 10-34) [synthetic peptide of the minimum binding domain of LEF-1 (10-34)]",–,IC50 [1]: 4 µM
